Test results reported in publication PMC6297355 (2018).

Biological target: HSPB1c/Hsp27c (model human HSPB fragment) (human, UniProt P04792 80-176)
Assay: ITC

Chain of HSPB1c/Hsp27c (model human HSPB fragment) (P04792 80-176): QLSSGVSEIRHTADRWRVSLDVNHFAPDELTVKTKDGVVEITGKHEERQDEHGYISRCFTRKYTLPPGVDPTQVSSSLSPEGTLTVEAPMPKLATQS

| Kd | Binder |
| --- | --- |
| > 100000 nM | BAG3 with deletion of both IPV motifs (recombinant) (natural protein) not shown |
| 2000 nM | BAG3 with complete deletion of the IPV2 motif (recombinant) (natural protein) not shown |
| 490 nM | BAG3^WT (recombinant) (natural protein) not shown |
